In the nanobody polyreactivity screen of Harvey et al. (2022):

assay: yeast display, Sf9 membrane polyspecificity reagent, FACS + sequencing; frameworks hold sequencing errors
Procedure, shortened: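 Synthetic nanobody libraries on Saccharomyces cerevisiae BJ5465 were galactose-induced for 36–48 hours, stained 1 hour at 4 °C with 10% biotinylated, detergent-solubilized Sf9 membrane reagent and enriched on streptavidin microbeads. FACS then separated cells into low and high (top ~1%) gates by anti-HA (expression) and streptavidin (reagent binding) fluorescence. Genes were colony-PCR amplified, MiSeq 2 × 250 sequenced and CDR-length filtered. A clone's polyreactivity label is that of its gate of origin.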

Sequence | polyreactivity (PSR sort gate)
QVQLVESGGGLVQAGGSLRLSWAASGITFRYYAMGWYRHAPGKERELVAAITSGGSTYYADSVKGRFTISRDNAKNTVYLQMNSLKPEDTAVYYCAAKYTLGVSRHPPVKKFYYWGQGTQVTVSS | high polyreactivity
QVQLVESGGGLVQAGGSLRLSWAASGITFVRYAMGWYRQAPGKEREFVAAINSIVGRTYYADSVKGRFTISRDNAKNTVYLQMNSLKPEDTAVYYCDADSNVRYGMDYWGQGTQVTVSS | low polyreactivity
QVQLVESGGGLVQAGGSLRLSWAASGNTFYGYAMGWYRQAPGKERELVAGIRWSGGSTSYADSVKGRFTISRDNAKNTVYLQMNSLKTEDTAVYYCAAGWYPWGYYSGYISYEYWGQGTQVTVSS | high polyreactivity
QVQLVESGGGLVQAGGSLRLSWAASGRIFGRYTMGWYTQAPGKERELVAAISSAGSTNYADSVKGRFTISRDNAKNTVYLQMNSLKPEDTAVYYCNRAKYVRYSLHYLGYARDYWGQGTQVTVSS | high polyreactivity
QVQLVESGGGLVQAGGSLRLSWAASGSIFNTYVMGWYRQAPGKEWELVAAITYSAGGDTYYADSVKGRFTISRDNAKNTVYLQMNSLKPEDTAVYYCAAEYTYLDAYGSYDYWGQGTQVTVSS | low polyreactivity
QVQLVESGGGLVQAGGSLRLSWAASGSIFRYNAMGWYRQAPGKERELVAAISSGGGTTYYADSVKGRFTISRDNAKNSVYLQMNSLKPEVTAVYYCNARSYYQRTTYPFRVDYWGQGTQVTVSS | high polyreactivity
QVQLVESGGGLVQAGGSLRLSWAASGSTFGFYAMGWYRQAPGKERELVASISSGGTTYHADSVKGRFTISRDNAKNTVYLQMNSLKPEDTAVYYSAAFYVATSKLGYWGQGSQVTVSS | low polyreactivity
QVQLVESGGGLVQAGGSLRLSWAASGSTFNSYAMGCYRQAPWKERELVAAITWSGGSTFYADSVKGRVTISRDNAKNTVYLQMNSLKPEDTSVYYCNADGPYYPPYPSTYVDGDSWGQGTQVTVSS | low polyreactivity
QVQLVESGGGLVQAGGSLRLSWAASGSTFVVYAMGWYRQAPGKERELVAAIDLSVGDTYYADSVKGRFTISRDNAKNTVFVQMNILKPEDTAVYYCAAEFYSYKYPDYDYWGQGTQVTVSS | low polyreactivity
QVQLVESGGGLVQAGGSLRLSWAAYGNIFPHYAMGWYIQAPGKERELVAGITSSGGSTSYADSVKGRFTISRDNAKKTVYLQMNSLKPEDTAVYYCAAPRGQRVRDVYWGQGTQVTVSS | low polyreactivity
QVQLVESGGGLVQAGGSLRLSYAASGFIFRYYAMGWYRQAPGKERELVAAIKASGGRTYYADSVKGRFTISRDNERNTVYLQINSLKPEDTAVYYCAASRSYQTFDYWGQGTQVTVSS | high polyreactivity
QVQLVESGGGLVQAGGSLRLSYAASGFTFTGYALGWYRQAPGKARELVAAISQSGGSTYADSVKGRFTISRDNAKNTVYLQMNSLKPEDTAVYYCAAVWFLLTEYDYWGQGTQVTVSS | low polyreactivity
QVQLVESGGGLVQAGGSLRLTCAASAFTFKLYVMGWYRHATGKERQFDAGITKRGGRTYYADSVKGRFTISRDNAKNTFYLQMNSLKPEDTAVYYCSAGTRIYNSCIRFDYWGQGTQVTVSS | high polyreactivity
QVQLVESGGGLVQAGGSLRLTCAASGFIFHRYAMGWYRQAPGKERELVAAITLNGGSTYYADSVKGRFTISRDNAKNTVYLQLNSLKPEDTAVYYCNAGWPWYVGGYYYWGQGTQVTVSS | low polyreactivity
QVQLVESGGGLVQAGGSLRLTCAASGFIFSKYAMGSYRQAPGKERELVAAISTSGASTYYADSVKGRFTISRDNAKNTVYLQMNSLKPEDTAVYYCNVPRYSPIRNYDYWGQGTQVTVSS | high polyreactivity
QVQLVESGGGLVQAGGSLRLTCAASGFIFVTYAMGWYRQPPGKERELVAAITNSGGTTYYADSVKGRFTISRDNAKNTVYLQMNSLKPEDTAVYYCNIPYGAETAHREFDYWGQGTQVTVSS | low polyreactivity
QVQLVESGGGLVQAGGSLRLTCAASGFTFPDKAMGWYRQAPGNERELVAALTTSGGRTYYADSVKGRFTISRDNAKNTVYLQMNRLKPEDTAVYYCARPSRQSHWYYYWGQGTQVTVSS | high polyreactivity
QVQLVESGGGLVQAGGSLRLTCAASGIIFRLNAMGWYRQAPGKERELVAAIRRRGGSTYYADSVKGRFTISRDYAKNTVYLQMNSLKPADTAVYYCAKEPDGSDFGYWGQGTQVTESS | low polyreactivity
QVQLVESGGGLVQAGGSLRLTCAASGNTFGNYAMGWYRQAPGKERELVASISWNVGSTYYADSVKGRFTISRDNAKNTVYLQMNSLKPEDTAVYYCARGYDRPRVATFHRFDYWGQGTQVTVSS | low polyreactivity
QVQLVESGGGLVQAGGSLRLTCAASGRIFAPKAMGWYRQAPGKERELVAGISSGGSTNYADSVKGRFTISRDNAKNTVYLQMNSLTPEDSAVYYCATGSYSYHRGYVTYARYGYWGQGTLVTVSS | low polyreactivity

Sequence | polyreactivity (PSR sort gate)
QVQLVESGGGLVQAGGSLRLTCAASGRIFDTYAMVWYRQAPGKEMELVAAISRSGGRTYYADSVKGRFTISRDNANNTVYLQMNSLKPEDTAVYYCAARAYPYYWTGQKQSRFGYWGQGTQVTVSS | high polyreactivity
QVQLVESGGGLVQAGGSLRLTCAASGRIFPYYAMGWYRQAPGKEREFVAAITSSGSRTYYADSVKGRFTISRDNAKNNVYLQMNSLKPEDTAVYYCAVAYRLLYYYWGQGTQVTVSS | high polyreactivity
QVQLVESGGGLVQAGGSLRLTCAASGRIFQRYAMGWYRQAPGKERELVAGITSSGGSTYYADSVKGRFTISRDNAKNTVYLQMNSLKPEDTAVYYCNAGGELRYYGYRAGGTTRSYDYWGQGTQVTVSS | low polyreactivity
QVQLVESGGGLVQAGGSLRLTCAASGRIFRRNAMGGYRQAPGKEREMVATITSGSSTNYADSVKGRFTISRDNAKNTVYLQMHSLKPEDTAVYYCAKLPWKYRVGYYRNQQTYDYWGQGTQVTVSS | high polyreactivity
QVQLVESGGGLVQAGGSLRLTCAASGRIFYPYPMGWYRQAPGKERELVAAIDKGGGSTYYADSVKGRFSISRDNAKNTVYLQMNSLKPEDTAVFYCAAGWEYPYDYWGQGTQVTVSS | low polyreactivity
QVQLVESGGGLVQAGGSLRLTCAASGRILRINTMGWYRQAPGKEMELVAAISLSGGTTYYAHSVKGRFTISRDNAKNTVYLQMNSVKPEDTAVYYCYKAIWYAEYDYWGQGTQVTVSS | low polyreactivity
QVQLVESGGGLVQAGGSLRLTCAASGRISKIYAMGWYRQAPGKERELVAAINSGGSTNYADSVKGRFTISRDNAKNTVYLQMNSLKPEDTAVYYCAATFKSGMDFWGQGTQVTVSS | high polyreactivity
QVQLVESGGGLVQAGGSLRLTCAASGRTFGHYAMGWYRQAPGKERELVAAISQRGGGTYYADSVKGRFTISRDNAKNTVYLQMNSLKPEDTAVYYCAADFGNSPYIKDYYYWGQGTQVTVSS | low polyreactivity
QVQLVESGGGLVQAGGSLRLTCAASGRTFGKYAMGWYRQAPGKERELVAAISSSGSTNYADSVKGRFTISRDNAKNTDYLQMNSLKPEDTAVYYCAAVQPGQSTVAYDYWGQGTQVTVSS | high polyreactivity
QVQLVESGGGLVQAGGSLRLTCAASGRTFGVNAMGWYRPAPGKERQLVAAITGGGSTYYADSVKGRFTISRDNAKNTVYLQMNSLKPDDTAVYYCNADRRRRSGGFAGWHFERNDYWGQGTQVTVSS | low polyreactivity
QVQLVESGGGLVQAGGSLRLTCAASGRTFIVYAMGWYRQAPGKERELVARISSGSRTSYADSVTGRFTISRDNAKNTVYLQMNSLKPEDTAVYYFAKSRVIKYEFDYWGQGTQVTLSS | low polyreactivity
QVQLVESGGGLVQAGGSLRLTCAASGRTFSVNAMGWYRQAPGKERELVASINWSGGSTYYADSVKGRFTISRDNAKNTVYLQMNSLKPEDTAVYYCAADHSYWDWWSYYYWGQGTQVTVSS | low polyreactivity
QVQLVESGGGLVQAGGSLRLTCAASGRTFWRYAMGWYRQAPGKERELVAAITSGGGSTYYADSVKGRFTISRDNAKNTVYLQMTSLKPEDTAVYYCNRAGRGRSFKGDYWGQGTQVTVSS | high polyreactivity
QVQLVESGGGLVQAGGSLRLTCAASGRTFYPYAMGWYRPAPGKERELVAAISSGVRTYYADSVKGRFTISRDNAKNTVYLQMNSLKPDDTAVYYCAARRSIWGQGTQVTVSS | high polyreactivity
QVQLVESGGGLVQAGGSLRLTCAASGRTYFYNAMGWYIKAPGKERELVAAISTNGGSTYYADSVNGRFTISRDNAKNTVYLQMNSLKPEDTAVYYCNTYAKPHRSGGGLGGHYYWGQGTQVTVSS | low polyreactivity
QVQLVESGGGLVQAGGSLRLTCAASGSIFALYAMGWYRQAPGKERELVAANADSVKGRFTISRDNAKNTVYLQMNSLKPEETAVYYCAKDITGGSGLGSWIYSEYDYWGQGTQVTVSS | low polyreactivity
QVQLVESGGGLVQAGGSLRLTCAASGSIFDYYAMGWYRQAPGKEWELVAAISNGGTTNYADSVKGRFTLSRDNAKNTVYLQMNRLKPEDTAVYYCNADSALYDKAVIYSEYDYWGQGTQVTVSS | low polyreactivity
QVQLVESGGGLVQAGGSLRLTCAASGSIFFPNTMGWSRQAPGKERELVASISYSGGSTYYADSVKGRFTISRDIAKNSVYLQMNSLKPEDTAVYYCARTYWGDRYQFSSNGYEYWGQGTQVTVSS | high polyreactivity
QVQLVESGGGLVQAGGSLRLTCAASGSIFFQNAMGWYRQAPGKERELVATITSSVGSTYYADSVKGRFTISRDNAKNTVYFQMNSLKPEDTAVYYCNVRVFSAALWYTYFGYDYWGQGTQVTVSS | low polyreactivity
QVQLVESGGGLVQAGGSLRLTCAASGSIFLDYAMGWYRQAPAKERELVAGITISGGSTYYADSVKGRFTISRDNAKNTVYLQMNSLKPEDTAVYYCAKVAPRSSSSQEYYYWGQGTQVTVSS | low polyreactivity
